Data set [1] can be described thus: SEC; high-performance size-exclusion chromatography (HPSEC) of the purified recombinant proteins; fractions of monomers, dimers, tri-/tetramers and high MW aggregates; details in the online Supporting Information. (In general: SEC sorts molecules by how far they enter the pores of the column.)
Another data set concerns the target rCor a 1.0401 (hazelnut). The description is as above.
Another data set has as its target rMal d 1.0108 (apple). Described as above.
Data set [2] deals with the molecule itself. The description is as above.

Where only a bound is given, the exact number is not on record here.

With Mal d 1 C107S, the “percent high MW aggregates” value in data set [1] is listed as less than 0.5%. The same measure, in the same setting: next, rCor a 1.0401: 9%. For rCor a 1.0401 (natural protein), in the data set with rCor a 1.0401 (hazelnut), the percent dimers stood at 28%, the percent monomers was found to be 45% and the percent tri-/tetramers is 18%. On to rMal d 1.0108, for which the “percent high MW aggregates” value in data set [1] is reported as 2%. With rMal d 1.0108 (natural protein), in the data set with rMal d 1.0108 (apple), the percent dimers was 34%, the percent monomers was found to be 56% and the percent tri-/tetramers came to 8%.

B1: Cor a 1 C4,82,160S (natural protein)
chain: GVFSYEDEATSVIPPARLFKSFVLDADNLIPKVAPQHFTSAENLEGNGGPGTIKKITFAEGNEFKYMKHKVEEIDHANFKYSYSIIEGGPLGHTLEKISYEIKMAAAPHGGGSILKITSKYHTKGNASINEEEIKAGKEKAAGLFKAVEAYLLAHPDAYS
Consider B1, for which, in data set [2], the percent monomers stood at 93%.

B2: Cor a 1 C4,82,160S, L115K (natural protein)
chain: GVFSYEDEATSVIPPARLFKSFVLDADNLIPKVAPQHFTSAENLEGNGGPGTIKKITFAEGNEFKYMKHKVEEIDHANFKYSYSIIEGGPLGHTLEKISYEIKMAAAPHGGGSIKKITSKYHTKGNASINEEEIKAGKEKAAGLFKAVEAYLLAHPDAYS
Regarding B2, the percent monomers in data set [2] is greater than 99%.

B3: Mal d 1 C107S, I113K (natural protein)
chain: GVYTFENEFTSEIPPSRLFKAFVLDADNLIPKIAPQAIKQAEILEGNGGPGTIKKITFGEGSQYGYVKHRIDSIDEASYSYSYTLIEGDALTDTIEKISYETKLVASGSGSTKKSISHYHTKGNIEIKEEHVKAGKEKAHGLFKLIESYLKDHPDAYN
In the case of B3, the percent monomers in data set [2] is greater than 99%.

B4: Mal d 1 C107S (natural protein)
chain: GVYTFENEFTSEIPPSRLFKAFVLDADNLIPKIAPQAIKQAEILEGNGGPGTIKKITFGEGSQYGYVKHRIDSIDEASYSYSYTLIEGDALTDTIEKISYETKLVASGSGSTIKSISHYHTKGNIEIKEEHVKAGKEKAHGLFKLIESYLKDHPDAYN
For the molecule B4, the percent monomers in data set [2] was greater than 98%.

Source of the values: publication PMC4041322, “Differences in the intrinsic immunogenicity and allergenicity of Bet v 1 and related food allergens revealed by site-directed mutagenesis” (Allergy, 2013).
